From publication PMC4363599, “A Purification Method for a Molecular Complex in Which a Scaffold Molecule Is Fully Loaded with Heterogeneous Molecules”

B1: fBCD35g immobilized on resin (XNA)
RNA: GGUUCAGCUGAGGCGAAAGCCGGUGAUGCUGAAUC
modifications: 2'-fluoro on all pyrimidines
B2: BCD35 2'-fPy-RNA (XNA)
RNA: GGUUCAGCUGACUCGAAAGGGCGUGAUGCUGAAUC
modifications: 2'-fluoro on all pyrimidines

Key:
[1] = target: Alexa Fluor 633-labelled L7Ae (UniProt O29494 1-119); experiment: pull-down; fBCD35g resin removes most free L7Ae; SPR as in ref 9 (L7Ae chip, RNA analyte); resin and plate assays in assay buffer at room temperature; buffer composition, salt and pH not given in the material; details: protein: recombinant; tags: His tag; Alexa Fluor 633 by amine coupling; label: resin-immobilized
Chain of Alexa Fluor 633-labelled L7Ae (O29494 whole entry): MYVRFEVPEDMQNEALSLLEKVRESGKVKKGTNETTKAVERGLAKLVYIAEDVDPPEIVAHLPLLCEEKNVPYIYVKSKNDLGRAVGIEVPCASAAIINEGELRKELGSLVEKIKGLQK

[2] = target: L7Ae (UniProt O29494 1-119); experiment: SPR; no signal up to 2 uM RNA; SPR as in ref 9 (L7Ae chip, RNA analyte); resin and plate assays in assay buffer at room temperature; buffer composition, salt and pH not given in the material; details: protein: recombinant; tags: His tag (pET28b-His-L7Ae-cmyc-His named as the L7Ae expression plasmid); immobilized on SPR chip
Chain of L7Ae (O29494 whole entry): as above

Row | Binder | binding result [1] | binding result [2]
1 | B1 | binds | –
2 | B2 | – | no binding
